The values that follow come from publication PMC4417367.

The assay concerns the target EGFP-GR C683A, L687-690A (rat) (UniProt P06536). Briefly: co-IP.

For heat shock protein 90 (natural protein), the percent decrease of the HSP90/GR ratio against wild type EGFP-GR worked out at 62.7%.
